Earlier results, collected in paper PMC6191370.

How the values were obtained:
CD25 (Homo sapiens) = CD25 (Homo sapiens) (UniProt P01589)
[1] = target: intermediate-affinity IL-2R (beta/gamma chains) (Homo sapiens) (UniProt P14784)
Sequence of UniProt P14784 (P14784 27-240, chain 1 of 2): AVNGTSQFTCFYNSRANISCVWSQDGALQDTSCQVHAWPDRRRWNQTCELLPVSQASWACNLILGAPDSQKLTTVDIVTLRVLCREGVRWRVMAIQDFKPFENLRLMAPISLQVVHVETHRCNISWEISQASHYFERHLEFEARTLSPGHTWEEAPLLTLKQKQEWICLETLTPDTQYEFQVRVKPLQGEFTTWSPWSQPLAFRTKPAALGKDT
Sequence of UniProt P14784 (P31785 23-262, chain 2 of 2, further chain): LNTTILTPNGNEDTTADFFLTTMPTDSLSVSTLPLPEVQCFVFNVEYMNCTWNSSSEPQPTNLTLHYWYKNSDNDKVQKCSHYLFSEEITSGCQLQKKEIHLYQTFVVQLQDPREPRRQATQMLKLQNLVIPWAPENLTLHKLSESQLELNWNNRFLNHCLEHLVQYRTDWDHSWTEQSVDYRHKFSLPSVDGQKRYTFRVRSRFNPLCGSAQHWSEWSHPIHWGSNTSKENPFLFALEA

Sequence of UniProt P01589 (P01589 22-240): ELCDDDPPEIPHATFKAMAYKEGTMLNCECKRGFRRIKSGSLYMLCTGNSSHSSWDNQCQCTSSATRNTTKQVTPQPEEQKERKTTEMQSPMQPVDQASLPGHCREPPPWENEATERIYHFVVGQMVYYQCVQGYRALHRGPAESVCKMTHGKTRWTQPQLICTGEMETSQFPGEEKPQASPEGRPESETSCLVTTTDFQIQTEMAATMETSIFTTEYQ

Kd (CD25 (Homo sapiens)): 10 nM
Kd [1]: 1 nM
Substance: IL-2 (from UniProt P60568)
